Assay [1] has as its target T1, human HER1 (human, UniProt P00533 25-1210).
T1 construct: also called EGFR; ErbB1
Briefly: FACS, CHO-HER1. Background: Flow cytometry measures light scatter and fluorescence of single cells or particles in a stream.

The target in assay [2] is T2, human HER2 (human, UniProt P04626 23-1255).
T2 construct: also called hHER2
Kind of assay: FACS, CHO-HER2.

Assay [3] concerns the target T3, human HER4 (human, UniProt Q15303 26-1308). Kind of assay: FACS, CHO-HER4.
Assay [4] concerns the target T1, human HER1. Briefly: FACS CHO-HER1, 222 nM.
The target in assay [5] is T1, human HER1. Briefly: FACS CHO-HER1, 667 nM.
Assay [6] addresses T2, human HER2. Kind of assay: FACS CHO-HER2, 222 nM.
Assay [7] deals with T2, human HER2. Kind of assay: FACS CHO-HER2, 667 nM.
For assay [8], the target named is T3, human HER4. Briefly: FACS CHO-HER4, 222 nM.
Assay [9] deals with T3, human HER4. Kind of assay: FACS CHO-HER4, 667 nM.
The target in assay [10] is T1, human HER1. Briefly: FACS CHO-HER1, 2000 nM.
For assay [11], the target named is T2, human HER2. Kind of assay: FACS CHO-HER2, 2000 nM.
The target of assay [12] is T3, human HER4. Kind of assay: FACS CHO-HER4, 2000 nM.
The target in assay [13] is T4, hHER3 full length (human, UniProt P21860 20-1342). Briefly: cell-based or functional assay.
The target in assay [14] is T4, hHER3 full length. Kind of assay: cell-based or functional assay. This is another data set of the same source.
The target in assay [15] is T5, hHER3 ECD (human HER3 extracellular domain) (human, UniProt P21860 20-643).
T5 construct: also called recombinant HER3-ECD
Kind of assay: ELISA, coated hHER3-ECD. On the technique in general: ELISA stands for enzyme-linked immunosorbent assay.

Assay [16] deals with T6, cHER3ECD (Maccaca fascicularis HER3 extracellular domain) (Macaca fascicularis, UniProt P21860 20-643 (human entry)).
T6 construct: also called cyno HER3ECD; cyno HER3-ECD
T6 chain: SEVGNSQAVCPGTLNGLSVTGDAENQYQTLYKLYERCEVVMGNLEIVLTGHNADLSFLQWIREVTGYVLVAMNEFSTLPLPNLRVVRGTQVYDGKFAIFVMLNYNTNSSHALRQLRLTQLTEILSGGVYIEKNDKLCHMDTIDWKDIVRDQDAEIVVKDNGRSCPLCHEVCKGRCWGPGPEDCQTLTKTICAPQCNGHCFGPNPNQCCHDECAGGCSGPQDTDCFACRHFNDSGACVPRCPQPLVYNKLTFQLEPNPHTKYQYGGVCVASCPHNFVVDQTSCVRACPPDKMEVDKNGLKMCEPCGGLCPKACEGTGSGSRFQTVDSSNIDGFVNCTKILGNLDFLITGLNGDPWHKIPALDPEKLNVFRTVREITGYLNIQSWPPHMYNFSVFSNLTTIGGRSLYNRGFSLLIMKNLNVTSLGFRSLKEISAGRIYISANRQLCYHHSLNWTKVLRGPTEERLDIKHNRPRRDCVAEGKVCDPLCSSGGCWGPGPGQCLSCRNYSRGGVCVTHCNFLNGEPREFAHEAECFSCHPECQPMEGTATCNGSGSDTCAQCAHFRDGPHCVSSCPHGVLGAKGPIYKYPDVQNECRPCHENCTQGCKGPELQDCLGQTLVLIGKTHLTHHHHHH
Briefly: ELISA, coated cHER3-ECD.

Assay [17] deals with T7, Chimeric chicken Her3-human domain 1 (AA1-206 human, AA207-642 chicken) (chicken/human chimera).
T7 construct: Transmembrane and extracellular regions, on HEK293 cells
T7 chain: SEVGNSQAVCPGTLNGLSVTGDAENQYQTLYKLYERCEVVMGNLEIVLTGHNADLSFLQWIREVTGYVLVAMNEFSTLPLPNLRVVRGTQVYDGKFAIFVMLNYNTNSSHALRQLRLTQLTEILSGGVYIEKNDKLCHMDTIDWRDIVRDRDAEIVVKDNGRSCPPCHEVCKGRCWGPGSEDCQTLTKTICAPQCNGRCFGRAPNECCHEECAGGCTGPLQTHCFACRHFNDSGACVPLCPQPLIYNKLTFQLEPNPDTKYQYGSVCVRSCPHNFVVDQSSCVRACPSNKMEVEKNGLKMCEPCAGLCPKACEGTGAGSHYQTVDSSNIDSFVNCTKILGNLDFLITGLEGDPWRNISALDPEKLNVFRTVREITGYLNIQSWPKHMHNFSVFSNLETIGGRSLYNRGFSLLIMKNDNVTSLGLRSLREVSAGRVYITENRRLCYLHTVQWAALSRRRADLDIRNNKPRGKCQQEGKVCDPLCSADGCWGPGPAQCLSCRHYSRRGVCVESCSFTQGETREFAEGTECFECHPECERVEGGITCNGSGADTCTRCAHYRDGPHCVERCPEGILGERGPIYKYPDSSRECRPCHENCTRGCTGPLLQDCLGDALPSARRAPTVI
Kind of assay: FACS, HEK293 with chimeric HER3.

Assay [18] has as its target T8, human HER3-Fc (R&D Systems, 348-RB) (human, UniProt P21860 20-643).
T8 construct: Bought; also called hHER3-Fc; Fc-HER3; Fc part of the bought chimera not given, not described
Kind of assay: SPR, HER3-Fc captured by anti-Fc. (In SPR one partner is held on a chip, and binding of the other changes the refractive index at the surface.)

In assay [19] the target is T4, hHER3 full length. Briefly: FACS, 400 nM, competitor 04C07-biotin.
Assay [20] addresses T4, hHER3 full length. Kind of assay: FACS, 400 nM, competitor 04F10-biotin.
For assay [21], the target named is T4, hHER3 full length. Briefly: FACS, 400 nM, competitor 17C08-biotin.
Assay [22] deals with T4, hHER3 full length. Kind of assay: FACS, 400 nM, competitor 18E08-biotin.
Assay [23] has as its target T4, hHER3 full length. Briefly: FACS, 400 nM, competitor 21B02-biotin.
Assay [24] has as its target T4, hHER3 full length. Briefly: FACS, 400 nM, competitor 23F05-biotin.
The target of assay [25] is T4, hHER3 full length. Kind of assay: FACS competition with HRG1-β1-EGF, CHO-HER3.
In assay [26] the target is T8, human HER3-Fc (R&D Systems, 348-RB). Briefly: HRG competition alphascreen.
For assay [27], the target named is T4, hHER3 full length. Briefly: cell-based or functional assay. This is another data set of the same source.
Assay [28] deals with T8, human HER3-Fc (R&D Systems, 348-RB). Briefly: HRG competition alphascreen. This is another data set of the same source.
Assay [29] has the same target. Kind of assay: HRG competition alphascreen. The source holds these as a separate data set.

Where two headings read alike, the source gives them in different places. A value given as a limit tells only on which side of the number the result lay.

T3 sequence (Q15303 26-1308 limits assumed): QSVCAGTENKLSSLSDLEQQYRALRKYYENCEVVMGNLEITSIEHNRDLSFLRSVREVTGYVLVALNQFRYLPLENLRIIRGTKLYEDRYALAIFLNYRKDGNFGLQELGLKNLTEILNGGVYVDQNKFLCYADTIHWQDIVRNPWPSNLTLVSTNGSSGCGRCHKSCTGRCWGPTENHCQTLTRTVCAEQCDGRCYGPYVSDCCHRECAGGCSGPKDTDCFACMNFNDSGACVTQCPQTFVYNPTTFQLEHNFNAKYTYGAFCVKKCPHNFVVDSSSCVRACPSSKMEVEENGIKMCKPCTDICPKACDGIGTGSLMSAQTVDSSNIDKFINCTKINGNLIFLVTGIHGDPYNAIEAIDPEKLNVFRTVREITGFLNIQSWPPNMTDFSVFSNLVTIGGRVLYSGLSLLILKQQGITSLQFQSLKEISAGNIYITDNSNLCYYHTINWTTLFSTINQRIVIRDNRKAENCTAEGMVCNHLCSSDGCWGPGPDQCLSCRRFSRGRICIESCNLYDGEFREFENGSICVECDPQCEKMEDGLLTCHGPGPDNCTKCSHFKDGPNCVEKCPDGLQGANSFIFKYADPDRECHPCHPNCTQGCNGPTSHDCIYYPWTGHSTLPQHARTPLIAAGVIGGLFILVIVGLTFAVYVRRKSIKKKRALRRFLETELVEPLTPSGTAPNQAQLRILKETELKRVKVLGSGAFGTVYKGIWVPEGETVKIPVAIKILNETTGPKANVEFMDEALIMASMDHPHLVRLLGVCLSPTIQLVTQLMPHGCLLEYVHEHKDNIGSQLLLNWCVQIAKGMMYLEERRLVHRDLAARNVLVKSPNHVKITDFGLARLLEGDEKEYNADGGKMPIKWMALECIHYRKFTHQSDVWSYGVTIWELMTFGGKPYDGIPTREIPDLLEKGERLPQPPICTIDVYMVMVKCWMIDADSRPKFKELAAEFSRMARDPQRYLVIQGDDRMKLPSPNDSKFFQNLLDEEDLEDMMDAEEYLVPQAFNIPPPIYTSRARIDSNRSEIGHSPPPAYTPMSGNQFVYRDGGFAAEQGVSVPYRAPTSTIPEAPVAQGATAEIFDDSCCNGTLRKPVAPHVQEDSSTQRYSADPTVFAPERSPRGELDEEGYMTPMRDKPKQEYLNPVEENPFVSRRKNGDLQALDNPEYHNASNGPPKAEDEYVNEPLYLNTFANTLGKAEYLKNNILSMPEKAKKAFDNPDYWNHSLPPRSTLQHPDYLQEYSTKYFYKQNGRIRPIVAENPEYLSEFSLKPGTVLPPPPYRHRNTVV

B1: 18B05 (VHH)
VHH: EVQLVESGGGLVQAGGSLRLSCAASGLTFGSAPMGWYRQAPGKERELVAYISGDERIWYGDSVKGRFTISRDTTKNTLYLQMNSLKPEDTAVYYCVSDVKVRHWGQGTQVTVSS
For B1, the binding result is “no binding (tested: 2000 nM)” in the assay with human HER1 [1], “no binding (tested: 2000 nM)” in the assay with human HER2 [2], “no binding (tested: 2000 nM)” in the assay with human HER4 [3] and “binds” in assay [17]. Further, the MCF in the assay with human HER1 [4] turned out to be 82; with human HER1 [5], 101; with human HER2 [6], 61; in the assay with human HER2 [7] it was 63; with human HER4 [8], 60; with human HER4 [9], 95. Also, the MCF amounted to 61 with human HER1 [10], 77 with human HER2 [11] and 96 in the assay with human HER4 [12]. In addition, the “IC50, HRG1-β1 induced pHER3, MCF-7” value with hHER3 full length [13] amounted to 5.18e-09 M. For the same molecule, the “IC50, HRG1-β1 induced pHER3, MDA-MB468” value with hHER3 full length [13] was found to be 3e-08 M. Also, the “IC50, HRG1-β1 induced pAkt, MCF-7” value with hHER3 full length [14] came out at 6.02e-09 M. Besides, in the assay with hHER3 full length [14], the “inhibition of HRG1-β1 induced pERK1/2, MCF-7” value is less than 50 % inhibition. For the same molecule, the EC50 turned out to be 0.4 nM in assay [15] and 0.45 nM in [16]. The same molecule returned a Kd in [18] of 0.29 nM. Besides, the kon in assay [18] stood at 490000 M⁻¹ s⁻¹. For the same molecule, the “% competition” value is 98% in the assay with hHER3 full length [19]; 31% with hHER3 full length [20]; 0% with hHER3 full length [21]; 0% with hHER3 full length [22]; 0% in the assay with hHER3 full length [23]; 0% in the assay with hHER3 full length [24]. The molecule further returned an IC50 with hHER3 full length [25] of 16.1 nM.

B2: HER3MS00046 (VHH)
VHH: EVQLVESGGGLVQPGGSLRLSCAASGRTYYLNAMGWFRQGPGKDREFVAAIDWSDGNKDYADSVKGRFTISRDNSKNTVYLQMNSLRPEDTAVYYCAADTPPWGPMIYIESYDSWGQGTLVTVSS
notes: 21F06 + A14P, A74S, K83R, Q108L; also called HER3MS0046; 21F06 basic variant
In [26], B2 gave an IC50 of 0.28 nM. This counts as sub-nanomolar.

B3: HER3MS00047 (VHH)
VHH: EVQLVESGGGLVQPGGSLRLSCAASGRTYYLNAMGWFRQAPGKDREFVAAIDWSDGNKDYADSVKGRFTISRDNSKNTVYLQMNSLRPEDTAVYYCAADTPPWGPMIYIESYDSWGQGTLVTVSS
notes: 21F06 basic + G40A; also called HER3MS0047
In assay [26], B3 registered an IC50 of 0.21 nM.

B4: HER3MS00048 (VHH)
VHH: EVQLVESGGGLVQPGGSLRLSCAASGRTYYLNAMGWFRQGPGKEREFVAAIDWSDGNKDYADSVKGRFTISRDNSKNTVYLQMNSLRPEDTAVYYCAADTPPWGPMIYIESYDSWGQGTLVTVSS
notes: 21F06 basic + D44E; also called HER3MS0048
On to B4, for which the IC50 in assay [26] came out at 0.27 nM.

B5: 17E08 (VHH)
VHH: EVQLVESGGGLVQPGGSLRLSCSASGSIFGLNAMGWYRQTPGKERELVAGITSITRVGSTRYADSAKGRFTISGDYAKNTVYLQMNSLKPEDTGVYYCRMSIVKSGGADYWGQGTQVTVSS
With B5, the binding result is recorded as “no binding (tested: 2000 nM)” with human HER1 [1], “no binding (tested: 2000 nM)” in the assay with human HER2 [2], “no binding (tested: 2000 nM)” with human HER4 [3] and “binds” in assay [17]. Also, the MCF with human HER1 [4] was 66; with human HER1 [5] it was 52; in the assay with human HER2 [6] it was 51; with human HER2 [7], 51; with human HER4 [8], 110; with human HER4 [9], 117. For the same molecule, the MCF in the assay with human HER1 [10] is 59; with human HER2 [11], 73; in the assay with human HER4 [12], 242. Further, in the assay with hHER3 full length [13], the “IC50, HRG1-β1 induced pHER3, MCF-7” value stood at 4.51e-09 M. Also, the “IC50, HRG1-β1 induced pHER3, MDA-MB468” value with hHER3 full length [13] was 2.46e-08 M. For the same molecule, the “IC50, HRG1-β1 induced pAkt, MCF-7” value in the assay with hHER3 full length [14] was 5.78e-09 M. Further, in the assay with hHER3 full length [14], the “IC50, HRG1-β1 induced pERK1/2, MCF-7” value came out at 2.78e-09 M. Further, the EC50 in assay [15] is 1.02 nM; in [16], 1.15 nM. The molecule also returned a Kd in [18] of 0.11 nM. The kon in assay [18] amounted to 363000 M⁻¹ s⁻¹. The “% competition” value with hHER3 full length [19] is 100%; with hHER3 full length [20] it was 32%; with hHER3 full length [21], 0%; in the assay with hHER3 full length [22] it was 0%; with hHER3 full length [23], 5%; in the assay with hHER3 full length [24], 0%. This molecule also registered an IC50 with hHER3 full length [25] of 75.9 nM.

B6: HER3MS00042 (VHH)
VHH: EVQLVESGGGLVQPGGSLRLSCAASGFTFSSYPMSWVRQAPGKGPAWVSTVSPGGITTSYADSVKGRFTISRDNSKNTLYLQMNSLRPEDTAVYYCLRDLNNRGQGTLVTVSS
notes: 04C07 + A14P, A74S, K83R, Q108L; also called HER3MS0042; 04C07 basic variant
For the molecule B6, the “IC50 pHER3, HRG1-β1 stimulated MCF7” value with hHER3 full length [27] was determined as 6.81e-09 M. For the same molecule, the IC50 in assay [28] and in assay [29] was 0.31 nM throughout.

B7: HER3MS00044 (VHH)
VHH: EVQLVESGGGLVQPGGSLRLSCAASGFTFSSYPMSWVRQAPGKGPAWVSTVSPGGITTSYADSVKGRFTISRDNSKNTLYLQMNSLRPEDTAVYYCARDLNNRGQGTLVTVSS
notes: 04C07 basic + L93A; also called HER3MS0044
Consider B7, for which the IC50 in assay [28] was determined as 1 nM.

B8: HER3MS00043 (VHH)
VHH: EVQLVESGGGLVQPGGSLRLSCAASGFTFSSYPMSWVRQAPGKGPEWVSTVSPGGITTSYADSVKGRFTISRDNSKNTLYLQMNSLRPEDTAVYYCLRDLNNRGQGTLVTVSS
notes: 04C07 basic + A46E; also called HER3MS0043
For B8, the IC50 in [28] was determined as 1.02 nM.

In general, EC50 refers to the midpoint of the concentration-response curve. A higher EC50 goes with a need for much substance. A word on the Kd: it is the concentration at which binding is half-saturated. Low readings indicate a tighter complex, high ones a looser complex. What is called kon is the rate constant with which the complex forms. Low values mean slow association, high ones fast association. The term IC50 denotes the concentration that inhibits the measured activity by half. Low readings indicate inhibition by little substance, high ones a need for much substance.

These data come from patent publication US20130136748A1 (Ablynx, published 2013).
